The values below come from PMC10397247.

Holding throughout (test): two-hybrid library CCmax;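 also: natural log of median RNA to DNA barcode read ratio; higher means stronger binding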
For one assay, the target named is GCN2_T.
For the next assay, the target named is 4H_GCN4.
Another assay addresses T1, 4H_APH.
T1 chain: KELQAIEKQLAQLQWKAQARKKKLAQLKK

The target of a further assay is T2, 4H2611-AA.
T2 chain: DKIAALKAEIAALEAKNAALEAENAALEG

In a further assay the target is T3, 4H3590-AA.
T3 chain: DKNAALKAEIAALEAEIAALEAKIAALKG
The note with it: mean of both orientations.

The next assay addresses T4, 4H384-AA.
T4 chain: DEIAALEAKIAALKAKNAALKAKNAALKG
Conditions: mean of both orientations.

A further assay deals with T5, 4H2774-AA.
T5 chain: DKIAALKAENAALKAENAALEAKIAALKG
Conditions: mean of both orientations.

Another assay concerns the target T6, 4H717-AA.
T6 chain: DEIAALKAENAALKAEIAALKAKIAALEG
The note with it: mean of both orientations.

The target in the next assay is T7, 4H3606-AA.
T7 chain: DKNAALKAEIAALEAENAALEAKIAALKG

The next assay has as its target T8, 4H982-AA.
T8 chain: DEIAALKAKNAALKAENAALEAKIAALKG
The note with it: mean of both orientations.

The target of the next assay is T9, 4H3718-AA.
T9 chain: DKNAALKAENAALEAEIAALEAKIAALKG

For another assay, the target named is T10, 4H3631-AA.
T10 chain: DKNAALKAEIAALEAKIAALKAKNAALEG
The note with it: mean of both orientations.

In another assay the target is T11, 4H697-AA.
T11 chain: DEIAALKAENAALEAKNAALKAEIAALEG
The note with it: mean of both orientations.

The target of a further assay is T12, 4H3865-AA.
T12 chain: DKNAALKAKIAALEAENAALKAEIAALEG
Conditions: mean of both orientations.

A further assay has as its target T13, 4H3697-AA.
T13 chain: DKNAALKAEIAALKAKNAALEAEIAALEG
The note with it: mean of both orientations.

Another assay addresses T14, 4H3016-AA.
T14 chain: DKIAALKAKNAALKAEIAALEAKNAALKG
The note with it: mean of both orientations.

Another assay has as its target T15, 4H2330-AA.
T15 chain: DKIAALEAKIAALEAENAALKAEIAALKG
The note with it: mean of both orientations.

Another assay has as its target T16, 4H930-AA.
T16 chain: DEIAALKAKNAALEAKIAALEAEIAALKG
The note with it: mean of both orientations.

A further assay concerns the target T17, 4H2473-AA.
T17 chain: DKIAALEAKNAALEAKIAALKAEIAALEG
Conditions: mean of both orientations.

The target in another assay is T18, 4H2389-AA.
T18 chain: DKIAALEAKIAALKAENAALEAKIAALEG
Conditions: mean of both orientations.

The target in the next assay is T19, 4H2274-AA.
T19 chain: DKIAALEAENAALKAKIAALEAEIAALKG
Conditions: mean of both orientations.

The target in the next assay is T20, 4H710-AA.
T20 chain: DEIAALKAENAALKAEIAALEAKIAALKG
Conditions: mean of both orientations.

Another assay deals with T21, 4H310-AA.
T21 chain: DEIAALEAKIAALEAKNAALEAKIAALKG
The note with it: mean of both orientations.

A further assay addresses T22, 4H3410-AA.
T22 chain: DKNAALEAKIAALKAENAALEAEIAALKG
Conditions: mean of both orientations.

In the next assay the target is T23, 4H629-AA.
T23 chain: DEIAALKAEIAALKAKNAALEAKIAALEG
The note with it: mean of both orientations.

A further assay has as its target T24, 4H2865-AA.
T24 chain: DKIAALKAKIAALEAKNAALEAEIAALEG

Another assay has as its target T25, 4H458-AA.
T25 chain: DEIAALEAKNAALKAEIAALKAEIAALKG
Conditions: mean of both orientations.

The next assay has as its target T26, 4H536-AA.
T26 chain: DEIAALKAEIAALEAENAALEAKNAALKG
The note with it: mean of both orientations.

In another assay the target is T27, 4H3120-AA.
T27 chain: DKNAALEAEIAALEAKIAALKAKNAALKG
The note with it: mean of both orientations.

A further assay has as its target T28, 4H3165-AA.
T28 chain: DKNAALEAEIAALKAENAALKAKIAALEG
The note with it: mean of both orientations.

For another assay, the target named is T29, 4H2698-AA.
T29 chain: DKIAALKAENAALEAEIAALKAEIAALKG

For the next assay, the target named is T30, 4H3009-AA.
T30 chain: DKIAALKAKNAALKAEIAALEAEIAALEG
The note with it: mean of both orientations.

The next assay deals with T31, 4H3130-AA.
T31 chain: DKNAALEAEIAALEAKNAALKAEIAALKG
Conditions: mean of both orientations.

For another assay, the target named is T32, 4H797-AA.
T32 chain: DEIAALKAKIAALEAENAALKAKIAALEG
The note with it: mean of both orientations.

The target of a further assay is T33, 4H745-AA.
T33 chain: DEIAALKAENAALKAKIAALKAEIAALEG
The note with it: mean of both orientations.

The next assay has as its target T34, 4H3753-AA.
T34 chain: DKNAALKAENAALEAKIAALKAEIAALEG
Conditions: mean of both orientations.

The target of the next assay is T35, 4H2649-AA.
T35 chain: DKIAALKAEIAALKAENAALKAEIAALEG
The note with it: mean of both orientations.

The target of the next assay is T36, 4H909-AA.
T36 chain: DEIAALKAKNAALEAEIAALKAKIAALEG
Conditions: mean of both orientations.

In the next assay the target is T37, 4H2438-AA.
T37 chain: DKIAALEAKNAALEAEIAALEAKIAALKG
Conditions: mean of both orientations.

A further assay deals with T38, 4H2253-AA.
T38 chain: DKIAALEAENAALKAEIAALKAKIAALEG
The note with it: mean of both orientations.

Another assay deals with T39, 4H570-AA.
T39 chain: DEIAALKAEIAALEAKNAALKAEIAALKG

A further assay has as its target T40, 4H891-AA.
T40 chain: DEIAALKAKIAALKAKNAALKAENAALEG
Conditions: mean of both orientations.

Another assay has as its target T41, 4H2725-AA.
T41 chain: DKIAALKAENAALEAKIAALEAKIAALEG
Conditions: mean of both orientations.

Read-outs that look alike come from different tables or passages of the source.

Sequence of 4H_GCN4 (chain, as listed by the source): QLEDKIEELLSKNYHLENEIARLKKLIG

With DENAALEAKIAALKAEIAALEAKIAALKG [4H1350-AA], the interaction score is -1.41 with GCN2_T; -1.31 in the assay with 4H_GCN4; -1.67 with 4H_APH (mean of both orientations); -1.74 in the assay with 4H2611-AA; 2.09 with 4H3590-AA; -0.758 with 4H384-AA.
In turn, DENAALEAEIAALEAKIAALEAKNAALKG [4H1064-AA] displayed an interaction score with 4H2774-AA of -1.39.
Turning to DENAALEAENAALEAEIAALEAEIAALEG [4H1153-AA], the interaction score with 4H717-AA was -1.1; with 4H3606-AA, -0.981; with 4H982-AA, -0.675; in the assay with 4H3718-AA (mean of both orientations) it was 0.217; with 4H3631-AA, 0.849; with 4H697-AA, -1.68. The interaction score with 4H2611-AA (mean of both orientations) is -1.92; with 4H3865-AA, -1.67; in the assay with 4H3697-AA, -1.72; with 4H384-AA, -0.314.
Take DEIAALEAENAALEAKIAALKAENAALEG [4H171-AA]: the interaction score with 4H3016-AA is 1.66; in the assay with 4H2330-AA it was -2.02; with 4H930-AA, -1.29; in the assay with 4H2473-AA, -1.21; with 4H2389-AA, -1.07; in the assay with 4H2274-AA it was -1.17. Further, the interaction score with 4H710-AA was 0.905; with 4H310-AA it was -1.66; in the assay with 4H3410-AA it was -0.741; with 4H629-AA, -1.29; in the assay with 4H2865-AA it was -0.997; with 4H458-AA it was -0.711. The interaction score with 4H536-AA is -1.32; with 4H3120-AA, -1.42; with 4H3165-AA, -1.21; in the assay with 4H2698-AA, -0.616; in the assay with 4H3009-AA, 2.13; in the assay with 4H3130-AA, 0.164. The interaction score was -0.733 with 4H3590-AA; -1.36 with 4H797-AA; -1.45 in the assay with 4H745-AA; -0.476 with 4H3865-AA; -1.25 in the assay with 4H3753-AA; -0.999 with 4H2649-AA. Further, the interaction score is -1.12 with 4H909-AA; -0.767 with 4H3697-AA; -1.36 in the assay with 4H384-AA; 0.734 with 4H2438-AA; -1.44 with 4H2253-AA; -0.493 in the assay with 4H570-AA (mean of both orientations). Besides, the figures for the interaction score with 4H891-AA and with 4H2725-AA were -0.295 and -1.12, respectively.
For DENAALKAKIAALEAKNAALEAKIAALEG [4H1845-AA], the interaction score with 4H717-AA was -1.01; in the assay with 4H3606-AA (mean of both orientations), -0.353; with 4H982-AA, -1.6; in the assay with 4H3718-AA (mean of both orientations), -1.65; with 4H3631-AA it was -1.57; with 4H697-AA it was -1.65. Also, the interaction score with 4H2611-AA (mean of both orientations) is -1.56; with 4H797-AA it was -0.965; in the assay with 4H3865-AA, -1.31; with 4H3697-AA, -1.83; with 4H384-AA it was -1.55.
Regarding DENAALEAENAALKAKIAALKAEIAALEG [4H1257-AA], the interaction score with GCN2_T was -1.92; with 4H717-AA, 0.282; in the assay with 4H2774-AA it was 2.09; in the assay with 4H_GCN4, -2.56; with 4H_APH (mean of both orientations) it was -1.94; in the assay with 4H797-AA it was -1.57.
DKNAALKAEIAALEAENAALEAKIAALKG [4H3606-AA]: the interaction score with GCN2_T was -0.266; with 4H717-AA it was -1.65; with 4H3606-AA it was -0.0341; with 4H982-AA, 0.00779; with 4H3718-AA it was -1.15; with 4H3631-AA, -0.831. The interaction score is -0.288 in the assay with 4H_GCN4; -1.27 with 4H_APH (mean of both orientations); -0.116 in the assay with 4H697-AA; 1.86 with 4H3865-AA; 1.42 with 4H3697-AA; 1.18 with 4H384-AA. Further, the interaction score with 4H570-AA was -2.43.
As to DKIAALEAEIAALKAKNAALEAKIAALEG [4H2165-AA], the interaction score with 4H2330-AA was -1.33; in the assay with GCN2_T, -1.41; with 4H717-AA it was -1.25; with 4H3606-AA (mean of both orientations), -0.638; with 4H2774-AA, -0.839; with 4H_GCN4, -1.58. The interaction score in the assay with 4H_APH was -1.76; with 4H2253-AA, -1.02.
DEIAALEAENAALKAKNAALKAEIAALEG [4H249-AA]: the interaction score with GCN2_T was -1.96; with 4H2774-AA it was 1.92; with 4H_GCN4, -1.66; with 4H_APH (mean of both orientations), -1.97; in the assay with 4H2611-AA (mean of both orientations), -1.99.
In the case of DENAALEAKIAALKAKNAALKAEIAALEG [4H1401-AA], the interaction score with GCN2_T was -1.62; in the assay with 4H717-AA it was -1.5; in the assay with 4H3606-AA (mean of both orientations), 2.07; with 4H982-AA, -0.483; with 4H3718-AA (mean of both orientations), 0.196; with 4H3631-AA it was -1.4. For the same molecule, the interaction score with 4H_GCN4 was -1.67; in the assay with 4H_APH (mean of both orientations), -1.86; with 4H697-AA it was -1.39; with 4H2611-AA (mean of both orientations), -1.66; with 4H3865-AA, 0.227; with 4H3697-AA it was -0.792. The interaction score in the assay with 4H384-AA was -1.67.
